Here are results for two molecules from publication PMC6572768, “THETA system allows one-step isolation of tagged proteins through temperature-dependent protein–peptide interaction” (Communications Biology, 2019).

In assay [1] the target is C13 monoclonal antibody (mouse). Put plainly: ELISA; indirect competitive ELISA at 4, 15, 26 and 37 °C; antibody mixed with serially diluted antigen until equilibrium, then 15 min on a well coated with GST-cCRY4CCE (1 μg/mL for C13 mAb); SM/TBS; affinity constants by fit to a model formula. In general terms: An ELISA detects its analyte on a solid surface through an enzyme-linked reagent.

Assay [2] concerns the target T1, recombinant chicken cryptochrome 4, full-length, untagged (chicken).
T1 construct: chicken cryptochrome 4 (cCRY4); last residue Thr529; calculated molecular mass 61,063 Da; also called cCRY4; non-tagged cCRY4; source: budding yeast MaV203, overexpressed, in soluble extract
T1 chain: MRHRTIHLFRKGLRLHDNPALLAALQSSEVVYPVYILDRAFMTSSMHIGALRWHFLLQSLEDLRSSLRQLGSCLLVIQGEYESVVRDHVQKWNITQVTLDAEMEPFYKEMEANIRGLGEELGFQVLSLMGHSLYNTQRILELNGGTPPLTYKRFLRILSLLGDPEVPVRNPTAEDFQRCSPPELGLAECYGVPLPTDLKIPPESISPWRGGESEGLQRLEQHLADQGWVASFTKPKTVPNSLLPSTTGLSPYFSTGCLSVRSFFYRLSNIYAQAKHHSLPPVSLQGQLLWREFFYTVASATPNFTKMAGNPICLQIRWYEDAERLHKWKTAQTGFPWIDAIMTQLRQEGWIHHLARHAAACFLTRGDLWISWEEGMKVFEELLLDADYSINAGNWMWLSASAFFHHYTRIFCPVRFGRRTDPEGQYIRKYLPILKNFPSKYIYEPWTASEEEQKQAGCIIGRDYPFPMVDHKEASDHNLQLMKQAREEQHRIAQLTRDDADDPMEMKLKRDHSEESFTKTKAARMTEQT
Put plainly: pull-down; renatured MBP-THETAL-His immobilised on Affi-Gel 15; crude extract mixed with the gel at 4 °C, washed, eluted by warming to 42 °C or 37 °C. The conditions noted are these: one partner purified.

The target of another assay is T2, GST-cCRY4CCE (chicken).
T2 construct: chicken cryptochrome 4 (cCRY4) C-terminal region, Asp470-Thr529; also called cCRY4 C-terminal extension (CCE)
T2 chain: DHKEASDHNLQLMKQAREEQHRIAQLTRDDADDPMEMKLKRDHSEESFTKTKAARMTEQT
Put plainly: ELISA; MBP-C13scFv-His refolded at various pH, dialysed against PBS pH 7.4, titrated on cCRY4CCE; detected with anti-6xHis antibody; EC50 by the Rodbard model.

In assay [1], TKTKAARMTEQT [GST-CT9] came in with a fold of the affinity constant at 4 °C over that at 37 °C of 480 times.

B1: MBP-C13scFv-His (scFv, V domains shown)
VH: EVKLEESGGGLVQPGGSLRLSCATSGFTFTDYYMSWVRQPPGKALEWLGFIRNKANVYTTEYSASVKGRFTISRDNSQSILYLQMNTLRAEDSATYYCARDGGYDDGGYAMDYWGQGTSVTVSS
VL: DIVMTQSHKFMSTSVGDRVSITCKASQDVGTAVAWYQQKPGQSPKLLIYWASTRHTGVPDRFTGSGSGTDFTLTISNVQSEDLADYFCQQYSSYPYTFGGGTKLEIK
notes: C13 variable light (VL); (GGGGS)3 linker; C13 variable heavy (VH); Order VL-linker-VH in pET-22b(+); also called MBP-THETAL-His; THETAL; not shown: MBP, N-terminal, kept; His6, C-terminal, kept
On to B1, for which the binding result (in assay [2]; with GST-cCRY4CCE) was “binds” in each case.
